We go through 18 molecules from patent US20120172295A1 (INDIANA UNIVERSITY RESEARCH AND TECHNOLOGY, published 2012).

Like-named read-outs stand apart in the source and are kept apart here. Starred links: 1 amine or outer side, 2 acyl side, 3 side chain; linkers in the order of their positions; H or OH if unused. Positions of bridges follow the written chain, without caps; N, C: chain ends. Non-standard residues stand in square brackets, D forms with d. Groups on a side chain read outwards from the residue. No end group written: not given here. *: point of attachment. γGlu = O=C(O)[C@H](CCC(=O)[*:2])N[*:1]; PEG40kDa = 40 kDa polyethylene glycol; Stearoyl = CCCCCCCCCCCCCCCCCC(=O)*; Palmitoyl = CCCCCCCCCCCCCCCC(=O)*; Dab = NCC[C@H](N)C(=O)O; Aib = CC(C)(N)C(=O)O

Experiment in all cases: cell-based or functional assay
Experiment [1] has as its target T1, glucagon receptor (UniProt P47871 26-477, limits assumed).
Experiment [2] addresses T2, GLP-1 receptor (UniProt P43220 24-463, limits assumed).
Experiment [3] concerns the target T2, GLP-1 receptor. The source holds these as a separate data set.
Experiment [4] concerns the target T1, glucagon receptor. The source holds these as a separate data set.
The target of experiment [5] is T1, glucagon receptor. This is another data set of the same source.
Experiment [6] deals with T2, GLP-1 receptor. The source holds these as a separate data set.
Experiment [7] has as its target T1, glucagon receptor. The source holds these as a separate data set.
The next experiment addresses T3, GIP receptor (UniProt P48546 22-466).
T3 sequence (looked up): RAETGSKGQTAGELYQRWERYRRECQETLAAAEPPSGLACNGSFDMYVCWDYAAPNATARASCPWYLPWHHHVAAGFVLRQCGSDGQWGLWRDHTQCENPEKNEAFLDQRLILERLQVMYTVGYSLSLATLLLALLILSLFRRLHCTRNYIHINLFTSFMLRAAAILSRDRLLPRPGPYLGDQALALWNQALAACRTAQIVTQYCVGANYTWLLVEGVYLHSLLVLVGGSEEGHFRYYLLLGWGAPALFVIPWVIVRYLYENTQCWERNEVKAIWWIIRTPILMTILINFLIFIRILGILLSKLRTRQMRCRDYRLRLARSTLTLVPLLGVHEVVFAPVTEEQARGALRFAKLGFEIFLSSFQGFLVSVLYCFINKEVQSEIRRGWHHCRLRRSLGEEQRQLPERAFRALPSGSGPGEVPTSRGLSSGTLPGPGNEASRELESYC

For experiment [8], the target named is T2, GLP-1 receptor. This is another data set of the same source.

T1 sequence (P47871 26-477 limits assumed): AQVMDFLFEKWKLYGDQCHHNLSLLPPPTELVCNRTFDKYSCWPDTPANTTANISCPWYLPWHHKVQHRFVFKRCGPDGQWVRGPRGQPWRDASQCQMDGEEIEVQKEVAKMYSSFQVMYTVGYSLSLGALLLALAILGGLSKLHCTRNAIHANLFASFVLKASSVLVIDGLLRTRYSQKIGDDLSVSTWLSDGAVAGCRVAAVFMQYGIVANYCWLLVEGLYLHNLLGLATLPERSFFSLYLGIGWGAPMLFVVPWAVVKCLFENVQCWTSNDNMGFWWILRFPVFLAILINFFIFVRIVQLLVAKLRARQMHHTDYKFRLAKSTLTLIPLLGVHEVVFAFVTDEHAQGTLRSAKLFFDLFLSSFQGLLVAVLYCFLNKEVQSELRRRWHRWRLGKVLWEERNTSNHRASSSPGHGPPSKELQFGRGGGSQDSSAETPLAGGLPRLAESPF

What is called EC50 is the concentration that produces a half-maximal response. As to HSQGTFTSDYSKYLDSRRAQDFVQWLMDGGPSSGAPPPS-NH2 [MDGG30 PSSGAPPPS (SEQ ID NO: 525)], in the experiment with glucagon receptor [1], the EC50 is 0.12 nM and the “Relative Potency (%)” value was 72%. In the experiment with GLP-1 receptor [2], the EC50 turned out to be 0.13 nM and the “Relative Potency (%)” value was determined as 19%.

B1: Peptide Chimera 2-AIB2-K30-acylated (peptide)
peptide: HXQGTFTSDYSKYLDEQAAKEFICWLMNTK
modifications: AIB at 2; Lys acylated with C18 (text says position 10, the name and the sequence say K30); 40 kDa PEG on Cys 24; C-terminal amide
In the experiment with GLP-1 receptor [3], B1 yielded an EC50 of 0.007 nM.

As for H[Aib]QGTFTSDYSKYLDEQAAKEFICWLMNT (lactam 16-20) [Peptide Y], in the experiment with glucagon receptor [4], the “% activity of native glucagon” value turned out to be 99.5%.

B2: Chi-2, AIB2, I7, Lys10 γE-γE-C16 (SEQ ID NO: 650) (peptide)
peptide: H[Aib]QGTFISDK([γGlu-γGlu-Palmitoyl])SKYLDEQAAKEFIAWLMNT-NH2
modifications: N-terminus assumed
SMILES: CCCCCCCCCCCCCCCC(=O)N[C@@H](CCC(=O)N[C@@H](CCC(=O)NCCCC[C@H](NC(=O)[C@H](CC(=O)O)NC(=O)[C@H](CO)NC(=O)[C@@H](NC(=O)[C@H](Cc1ccccc1)NC(=O)[C@@H](NC(=O)CNC(=O)[C@H](CCC(N)=O)NC(=O)C(C)(C)NC(=O)[C@@H](N)Cc1c[nH]cn1)[C@@H](C)O)[C@@H](C)CC)C(=O)N[C@@H](CO)C(=O)N[C@@H](CCCCN)C(=O)N[C@@H](Cc1ccc(O)cc1)C(=O)N[C@@H](CC(C)C)C(=O)N[C@@H](CC(=O)O)C(=O)N[C@@H](CCC(=O)O)C(=O)N[C@@H](CCC(N)=O)C(=O)N[C@@H](C)C(=O)N[C@@H](C)C(=O)N[C@@H](CCCCN)C(=O)N[C@@H](CCC(=O)O)C(=O)N[C@@H](Cc1ccccc1)C(=O)N[C@H](C(=O)N[C@@H](C)C(=O)N[C@@H](Cc1c[nH]c2ccccc12)C(=O)N[C@@H](CC(C)C)C(=O)N[C@@H](CCSC)C(=O)N[C@@H](CC(N)=O)C(=O)N[C@H](C(N)=O)[C@@H](C)O)[C@@H](C)CC)C(=O)O)C(=O)O
Take B2: the EC50 turned out to be 0.007 nM in the experiment with glucagon receptor [5] and 0.01 nM with GLP-1 receptor [6].

As for H[Aib]EGTFTSDK([γGlu-γGlu-Palmitoyl])SKYLDEQAAKEFIAWLMNT [Chi-2, AIB2, E3, Lys10 γE-γE-C16 (SEQ ID NO: 648)], the figures for the EC50 with glucagon receptor [5] and with GLP-1 receptor [6] were 2.92 nM and 0.004 nM, respectively.

H[Aib]QGTFTSDK(Stearoyl)SKYLDEQAAKEFIC(PEG40kDa)WLMNT-NH2 [Peptide Chimera 2-AIB2-K10-acylated]: a half-maximal response with GLP-1 receptor [3] (EC50) required 0.465 nM.

H[dS]QGTFTSDK([γGlu-γGlu-Palmitoyl])SKYLDEQAAKEFIAWLMNT [Chi-2, d-Ser2, Lys10 γE-γE-C16 (SEQ ID NO: 644)]: the EC50 with glucagon receptor [5] was 0.008 nM; with GLP-1 receptor [6], 0.003 nM.

H[dS]QGTFTSDK([γGlu-Palmitoyl])SKYLDEQAAKEFIAWLMNT [Chi-2, d-Ser2, Lys10 γE-C16 (SEQ ID NO: 643)]: the EC50 stood at 0.011 nM with glucagon receptor [5] and 0.0014 nM with GLP-1 receptor [6].

XSQGTFTSDYSKYLDERRAKDFVQWLMNK (DMIA at 1; E16/K20 lactam; Lys 29 with C16 acyl via γ-Glu-γ-Glu) [DMIA1, E16/K20 lactam, Lys29 γE-γE-C16 (SEQ ID NO: 654)] returned an EC50 in the experiment with glucagon receptor [5] of 0.025 nM.

As to HS[Dab](Ac)GTFTSDYSKYLD[Aib]RRATDFVTWLLDE [HSDab(Ac)…ibRRATDFVTWLLDE (SEQ ID NO: 606)], in the experiment with glucagon receptor [7], the “% activity” value is 46% and the EC50 worked out at 0.057 nM.

As for HSQGTFTSDYSKYLDSRRAQDFVQWLVKGGPSSGAPPPS-NH2 [VKGG30 PSSGAPPPS (SEQ ID NO: 524)], in the experiment with glucagon receptor [1], a half-maximal response (EC50) required 1.16 nM and the “Relative Potency (%)” value is 7%. In the experiment with GLP-1 receptor [2], it took 0.21 nM to reach a half-maximal effect (EC50) and the “Relative Potency (%)” value came to 12%.

B3: HSDab(Ac)…ibRRAADFVAWLLDTGPSSGAPPPS amide (SEQ ID NO: 604) (peptide)
peptide: HS[Dab](Ac)GTFTSDYSKYLD[Aib]RRAADFVAWLLDTGPSSGAPPPS-NH2
modifications: N-terminus assumed
SMILES: CC(=O)NCC[C@H](NC(=O)[C@H](CO)NC(=O)[C@@H](N)Cc1c[nH]cn1)C(=O)NCC(=O)N[C@H](C(=O)N[C@@H](Cc1ccccc1)C(=O)N[C@H](C(=O)N[C@@H](CO)C(=O)N[C@@H](CC(=O)O)C(=O)N[C@@H](Cc1ccc(O)cc1)C(=O)N[C@@H](CO)C(=O)N[C@@H](CCCCN)C(=O)N[C@@H](Cc1ccc(O)cc1)C(=O)N[C@@H](CC(C)C)C(=O)N[C@@H](CC(=O)O)C(=O)NC(C)(C)C(=O)N[C@@H](CCCNC(=N)N)C(=O)N[C@@H](CCCNC(=N)N)C(=O)N[C@@H](C)C(=O)N[C@@H](C)C(=O)N[C@@H](CC(=O)O)C(=O)N[C@@H](Cc1ccccc1)C(=O)N[C@H](C(=O)N[C@@H](C)C(=O)N[C@@H](Cc1c[nH]c2ccccc12)C(=O)N[C@@H](CC(C)C)C(=O)N[C@@H](CC(C)C)C(=O)N[C@@H](CC(=O)O)C(=O)N[C@H](C(=O)NCC(=O)N1CCC[C@H]1C(=O)N[C@@H](CO)C(=O)N[C@@H](CO)C(=O)NCC(=O)N[C@@H](C)C(=O)N1CCC[C@H]1C(=O)N1CCC[C@H]1C(=O)N1CCC[C@H]1C(=O)N[C@@H](CO)C(N)=O)[C@@H](C)O)C(C)C)[C@@H](C)O)[C@@H](C)O
On to B3, for which, in the experiment with glucagon receptor [7], the “% activity” value came to 113% and a half-maximal effect (EC50) was put at 0.023 nM.

As to HSQGTFTSDYSKYLDSRRAQDFVQWLMKGGPSSGAPPPS-NH2 [MKGG30 PSSGAPPPS (SEQ ID NO: 523)], the values for the EC50 in the experiment with glucagon receptor [1] and in the experiment with GLP-1 receptor [2] were 0.61 nM and 0.8 nM, respectively. For the same molecule, the figures for the “Relative Potency (%)” value with glucagon receptor [1] and with GLP-1 receptor [2] were 14% and 3%, respectively.

In the case of HS[Dab](Ac)GTFTSDYSKYLD[Aib]RRASDFVSWLLDE [HSDab(Ac)…ibRRASDFVSWLLDE (SEQ ID NO: 605)], in the experiment with glucagon receptor [7], the “% activity” value is 54% and the midpoint of the response, the EC50, lay at 0.048 nM.

For H[Aib]QGTFTSDYSKYLDEQAAKEFIC([maleimide-PEG 40 kDa])WLMNT [Peptide X-PEG], in the experiment with glucagon receptor [4], the “% activity of native glucagon” value came to 1.9% and the “EC50 (cAMP, CRE-luciferase)” value is 2.9 nM.

Consider H[Aib]QGTFTSDYSKYLDEQAAKEFIC(PEG 40 kDa)WLMNGGPSSGAPPPSK-NH2 [mt-350], for which, in the experiment with GIP receptor, the “% Relative activity” value was 0% and the EC50 is 77.7 nM. In the experiment with GLP-1 receptor [8], the “% Relative activity” value was 58.9% and a half-maximal response (EC50) required 0.0107 nM.

B4: Chi-2, AIB2, E3, Lys10 C16 no spacer (SEQ ID NO: 647) (peptide)
peptide: H[Aib]EGTFTSDK(Palmitoyl)SKYLDEQAAKEFIAWLMNT-NH2
modifications: N-terminus assumed
SMILES: CCCCCCCCCCCCCCCC(=O)NCCCC[C@H](NC(=O)[C@H](CC(=O)O)NC(=O)[C@H](CO)NC(=O)[C@@H](NC(=O)[C@H](Cc1ccccc1)NC(=O)[C@@H](NC(=O)CNC(=O)[C@H](CCC(=O)O)NC(=O)C(C)(C)NC(=O)[C@@H](N)Cc1c[nH]cn1)[C@@H](C)O)[C@@H](C)O)C(=O)N[C@@H](CO)C(=O)N[C@@H](CCCCN)C(=O)N[C@@H](Cc1ccc(O)cc1)C(=O)N[C@@H](CC(C)C)C(=O)N[C@@H](CC(=O)O)C(=O)N[C@@H](CCC(=O)O)C(=O)N[C@@H](CCC(N)=O)C(=O)N[C@@H](C)C(=O)N[C@@H](C)C(=O)N[C@@H](CCCCN)C(=O)N[C@@H](CCC(=O)O)C(=O)N[C@@H](Cc1ccccc1)C(=O)N[C@H](C(=O)N[C@@H](C)C(=O)N[C@@H](Cc1c[nH]c2ccccc12)C(=O)N[C@@H](CC(C)C)C(=O)N[C@@H](CCSC)C(=O)N[C@@H](CC(N)=O)C(=O)N[C@H](C(N)=O)[C@@H](C)O)[C@@H](C)CC
B4: the EC50 with glucagon receptor [5] worked out at 46.1 nM; with GLP-1 receptor [6], 0.005 nM.

B5: Chi-2, AIB2, Lys10 γE-C16 (SEQ ID NO: 645) (peptide)
peptide: H[Aib]QGTFTSDK([γGlu-Palmitoyl])SKYLDEQAAKEFIAWLMNT-NH2
modifications: N-terminus assumed
SMILES: CCCCCCCCCCCCCCCC(=O)N[C@@H](CCC(=O)NCCCC[C@H](NC(=O)[C@H](CC(=O)O)NC(=O)[C@H](CO)NC(=O)[C@@H](NC(=O)[C@H](Cc1ccccc1)NC(=O)[C@@H](NC(=O)CNC(=O)[C@H](CCC(N)=O)NC(=O)C(C)(C)NC(=O)[C@@H](N)Cc1c[nH]cn1)[C@@H](C)O)[C@@H](C)O)C(=O)N[C@@H](CO)C(=O)N[C@@H](CCCCN)C(=O)N[C@@H](Cc1ccc(O)cc1)C(=O)N[C@@H](CC(C)C)C(=O)N[C@@H](CC(=O)O)C(=O)N[C@@H](CCC(=O)O)C(=O)N[C@@H](CCC(N)=O)C(=O)N[C@@H](C)C(=O)N[C@@H](C)C(=O)N[C@@H](CCCCN)C(=O)N[C@@H](CCC(=O)O)C(=O)N[C@@H](Cc1ccccc1)C(=O)N[C@H](C(=O)N[C@@H](C)C(=O)N[C@@H](Cc1c[nH]c2ccccc12)C(=O)N[C@@H](CC(C)C)C(=O)N[C@@H](CCSC)C(=O)N[C@@H](CC(N)=O)C(=O)N[C@H](C(N)=O)[C@@H](C)O)[C@@H](C)CC)C(=O)O
Consider B5, for which the EC50 is 0.025 nM with glucagon receptor [5] and 0.0014 nM in the experiment with GLP-1 receptor [6].
